Laboratory results from publication PMC9839844, “PPDPF Promotes the Development of Mutant KRAS‐Driven Pancreatic Ductal Adenocarcinoma by Regulating the GEF Activity of SOS1” (Advanced Science, 2022).

Target: T1, SOS1^Cat (catalytic module of SOS1: REM and CDC25 domains), recombinant (UniProt Q07889 566-1046)
T1 construct: SOS1, Cat domain (REM and CDC25 domains together); cloned into the ProEX HTb vector; also called SOS^Cat; Cat domain; source: E. coli BL21 (Rosta), purified (His beads)
T1 sequence: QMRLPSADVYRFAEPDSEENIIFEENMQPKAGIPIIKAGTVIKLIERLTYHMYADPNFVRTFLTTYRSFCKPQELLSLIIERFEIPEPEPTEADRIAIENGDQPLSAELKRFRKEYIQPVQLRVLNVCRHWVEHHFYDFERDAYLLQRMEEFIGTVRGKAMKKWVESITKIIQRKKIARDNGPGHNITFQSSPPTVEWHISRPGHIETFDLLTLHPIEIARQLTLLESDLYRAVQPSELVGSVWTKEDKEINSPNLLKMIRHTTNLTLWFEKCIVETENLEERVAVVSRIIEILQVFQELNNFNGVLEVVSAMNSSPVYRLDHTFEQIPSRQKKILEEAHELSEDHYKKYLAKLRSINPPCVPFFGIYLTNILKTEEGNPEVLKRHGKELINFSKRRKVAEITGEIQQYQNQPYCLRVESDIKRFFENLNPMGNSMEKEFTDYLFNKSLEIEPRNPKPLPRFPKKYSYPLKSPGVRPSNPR
Assay: pull-down; GST pulldown in vitro with recombinant proteins
Conditions: both partners purified

B1: PPDPF, recombinant (natural protein, UniProt Q9H3Y8 1-114, looked up)
chain: MAAIPSSGSLVATHDYYRRRLGSTSSNSSCSSTECPGEAIPHPPGLPKADPGHWWASFFFGKSTLPFMATVLESAEHSEPPQASSSMTACGLARDAPRKQPGGQSSTASAGPPS
notes: Pancreatic progenitor cell differentiation and proliferation factor (PPDPF); subcloned into pGEX-4T-1; The methods say that the beads were incubated with thrombin; also called PPDPF recombinant protein; source: E. coli BL21, purified (GST beads)
binding result: binds
